In patent US20230312725A1 (JIANGSU HENGRUI PHARMACEUTICALS, published 2023):

Target: human Claudin18.2 (human)
Test: cell-based or functional assay

ADCC effect, IC50 (ng/ml), NUGC4 cells with high Claudin18.2 expression [ng/mL] | ADCC effect, IC50 (ng/ml), NUGC4 cells with low Claudin18.2 expression [ng/mL] | ADCC effect, IC50 (ng/ml), NUGC4 cells with moderate Claudin18.2 expression [ng/mL] | Binder
133 | 183 | 210 | IMAB-362 (antibody, human IgG1, kappa, V domains shown) VH: QVQLQQPGAELVRPGASVKLSCKASGYTFTSYWINWVKQRPGQGLEWIGNIYPSDSYTNYNQKFKDKATLTVDKSSSTAYMQLSSPTSEDSAVYYCTRSWRGNSFDYWGQGTTLTVSS VL: DIVMTQSPSSLTVTAGEKVTMSCKSSQSLLNSGNQKNYLTWYQQKPGQPPKLLIYWASTRESGVPDRFTGSGSGTDFTLTISSVQAEDLAVYYCQNDYSYPFTFGSGTKLEIKR
26.2 | 22.4 | 15.3 | h1901-11 (antibody, human IgG1, kappa, V domains shown) VH: EVQLVESGGGLVQPGGSLRLSCAASGFTFSDYGIHWVRQAPGKGLEWIAYISRGSSTIYYADTVKGRFTISRDNAKNSLYLQMTSLRAEDTAVYYCARGGYDTRNAMDYWGQGTTVTVSS VL: DIVMTQSPDSLAVSLGERATISCKSSQSLLNSGNQKNYLAWYQQKPGQPPKLLIYGASTRASGVPDRFSGSGSGTDFTLTISSLQAEDVAIYHCQNDLYYPLTFGQGTKLEIKR
